Data taken from patent publication US20260167721A1 (ABLEXIS, published 2026).
Each block holds one binder with its values, some of them ahead of it.

What was measured:
[1] = molecular target: T1, recombinant human CD3 epsilon/delta heterodimer (human, UniProt P07766 23-126; P04234 22-105); experiment: Octet BLI, mAb on FAB2G sensor, hCD3 E/D 200-50 nM; R^2 1.00
T1 construct: Recombinant protein in solution (200-50 nM) in the Octet assay; also called hCD3 E/D; human CD3E/D

[2] = molecular target: T2, recombinant human CD3 epsilon/gamma heterodimer (human, UniProt P07766 23-126; P09693 23-116); experiment: Octet BLI, mAb on FAB2G sensor, hCD3 E/G 200-50 nM; R^2 0.00
T2 construct: Recombinant protein in solution (200-50 nM) in the Octet assay; also called hCD3 E/G

[3] = molecular target: T1, recombinant human CD3 epsilon/delta …; experiment: Octet BLI, mAb on FAB2G sensor, hCD3 E/D 200-50 nM; R^2 0.94
Experimental: (§1) Samples were evaluated by flow cytometry analysis against Jurkat and human Pan-T cells (FIG. 1B) as well as by Octet against recombinant human CD3 proteins to evaluate apparent affinities and binding off-rates (Table 6, infra).

[4] = molecular target: T2, recombinant human CD3 epsilon/gamma …; experiment: Octet BLI, mAb on FAB2G sensor, hCD3 E/G 200-50 nM; R^2 0.92
Experimental: as §1

[5] = molecular target: T2, recombinant human CD3 epsilon/gamma …; experiment: Octet BLI, mAb on FAB2G sensor, hCD3 E/G 200-50 nM; R^2 0.85
Experimental: as §1

[6] = molecular target: T1, recombinant human CD3 epsilon/delta …; experiment: Octet BLI, mAb on FAB2G sensor, hCD3 E/D 200-50 nM; R^2 0.96
Experimental: as §1

[7] = molecular target: T2, recombinant human CD3 epsilon/gamma …; experiment: Octet BLI, mAb on FAB2G sensor, hCD3 E/G 200-50 nM; R^2 0.64
Experimental: as §1

[8] = molecular target: T1, recombinant human CD3 epsilon/delta …; experiment: Octet BLI, mAb on FAB2G sensor, hCD3 E/D 200-50 nM; R^2 0.60
Experimental: as §1

[9] = molecular target: T2, recombinant human CD3 epsilon/gamma …; experiment: Octet BLI, mAb on FAB2G sensor, hCD3 E/G 200-50 nM; R^2 0.49
Experimental: as §1

[10] = molecular target: T2, recombinant human CD3 epsilon/gamma …; experiment: Octet BLI, mAb on FAB2G sensor, hCD3 E/G 200-50 nM; R^2 0.76
Experimental: as §1

[11] = molecular target: T1, recombinant human CD3 epsilon/delta …; experiment: Octet BLI, mAb on FAB2G sensor, hCD3 E/D 200-50 nM; R^2 0.98;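 further: antibodies purified from hybridoma supernatants, measured by Octet binding to recombinant human CD3 protein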
Experimental: as §1

[12] = molecular target: T2, recombinant human CD3 epsilon/gamma …; experiment: Octet BLI, mAb on FAB2G sensor, hCD3 E/G 200-50 nM; R^2 0.79
Experimental: as §1

[13] = molecular target: T2, recombinant human CD3 epsilon/gamma …; experiment: Octet BLI, mAb on FAB2G sensor, hCD3 E/G 200-50 nM; R^2 0.95
Experimental: as §1

[14] = molecular target: T2, recombinant human CD3 epsilon/gamma …; experiment: Octet BLI, mAb on FAB2G sensor, hCD3 E/G 200-50 nM; R^2 0.96
[15] = molecular target: T1, recombinant human CD3 epsilon/delta …; experiment: Octet BLI, mAb on FAB2G sensor, hCD3 E/D 200-50 nM; R^2 0.95
Experimental: as §1

[16] = molecular target: T2, recombinant human CD3 epsilon/gamma …; experiment: Octet BLI, mAb on FAB2G sensor, hCD3 E/G 200-50 nM; R^2 0.59
[17] = molecular target: T1, recombinant human CD3 epsilon/delta …; experiment: Octet BLI, mAb on FAB2G sensor, hCD3 E/D 200-50 nM; R^2 0.92

T1 sequence (P07766 23-126, stated change not applied, chain 1 of 2): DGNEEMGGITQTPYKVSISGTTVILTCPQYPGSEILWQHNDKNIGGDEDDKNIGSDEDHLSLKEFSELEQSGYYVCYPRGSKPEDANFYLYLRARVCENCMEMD
T1 sequence (P04234 22-105, stated change not applied, chain 2 of 2): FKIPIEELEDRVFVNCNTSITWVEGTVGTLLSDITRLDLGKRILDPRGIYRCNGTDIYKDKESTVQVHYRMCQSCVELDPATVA
T2 sequence (P07766 23-126, chain 1 of 2): as the sequence (P07766 23-126, stated change not applied, chain 1 of 2) above
T2 sequence (P09693 23-116, chain 2 of 2): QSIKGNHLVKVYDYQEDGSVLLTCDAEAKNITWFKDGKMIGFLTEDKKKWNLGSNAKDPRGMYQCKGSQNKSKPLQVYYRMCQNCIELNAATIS

- Kd [1]: 8.32 nM
- Response [1]: 0.41
- koff [1]: 0.000307 s⁻¹
- kon [1]: 36900 M⁻¹ s⁻¹
- Kd [2]: < 0.001 nM
- koff [2]: < 1e-07 s⁻¹
- kon [2]: 50000 M⁻¹ s⁻¹
B1: ABL-CD3-39 (antibody, V domains shown)
VH: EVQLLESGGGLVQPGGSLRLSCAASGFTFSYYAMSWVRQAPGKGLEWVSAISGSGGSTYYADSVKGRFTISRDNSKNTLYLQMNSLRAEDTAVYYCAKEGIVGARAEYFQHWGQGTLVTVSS
VL: DVVMTQSPLSLPVTLGQPASISCRSSQSLVYSDGNTYLTWFQQRPGQSPRRLIYKVSNRDSGVPDRFSGSGSGTDFTLKISRVEAEDVEIYYCMQGTHWPLTFGGGTKVEIK
notes: Chimeric hybridoma mAb: human V, CH1, upper hinge; mouse middle hinge, CH2, CH3

- Kd [3]: 6.66 nM
- koff [3]: 0.00149 s⁻¹
- kon [3]: 223000 M⁻¹ s⁻¹
- Kd [4]: 5.64 nM
- koff [4]: 0.00173 s⁻¹
- kon [4]: 306000 M⁻¹ s⁻¹
B2: ABL-CD3-31 (antibody, V domains shown)
VH: EVQLVQSGAEVKKPGESLKISCKGSGYSFTNYWIGWVRQMPGKGLEWMGIIYPADSDTTYSPSFQGQVTISADKSITTAYLQWSSLKASDTAMYYCARHGGSYILDAFDIWGQGTMVTVSS
VL: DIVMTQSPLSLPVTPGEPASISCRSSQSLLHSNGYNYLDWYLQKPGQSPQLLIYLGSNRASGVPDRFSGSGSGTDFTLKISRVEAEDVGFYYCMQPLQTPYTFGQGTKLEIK
notes: as for B1

- Kd [1]: 25 nM
- Response [1]: 0.49
- koff [1]: 0.00101 s⁻¹
- kon [1]: 40400 M⁻¹ s⁻¹
- Kd [10]: 4.18 nM
- koff [10]: 0.00729 s⁻¹
- kon [10]: 1.74e+06 M⁻¹ s⁻¹
B6: ABL-CD3-36 (antibody, V domains shown)
VH: EVQLVESGGGLVQRGGSLRLSCAASGFTFSNYWMSWVRQAPGKGLEWVANIKEDGSEKYCVDSVKGRFTISRDNAKHSLYLQMNSLRAEDTAVYYCARERRTGYFDYWGQGTLVTVSS
VL: DIQMTQSPSTLSASVGDRVTITCRASQSISSWLAWFQQKTGKAPKLLIYKASSLESGVPSRFSGSGSGTEFTLTISSLQPDDFATYYCQQYISYSWTFGQGTKVEIK
notes: as for B1

- Kd [11]: 117 nM
- Response [11]: 0.26
- koff [11]: 0.0218 s⁻¹
- kon [11]: 187000 M⁻¹ s⁻¹
- Kd [13]: 69.2 nM
- koff [13]: 0.0402 s⁻¹
- kon [13]: 581000 M⁻¹ s⁻¹
B8: ABL-CD3-61 (antibody, V domains shown)
VH: EVQLVESGGGLVKPGGSLRLSCAASGFTFSSYSMNWVRQAPGKGLEWVSSISRSGTYIYYADSVKGRFTISRDNAKNSLYLQMNSLRAEDTAVYYCARERWELLYFDYWGQGTLVTVSS
VL: QTVVTQEPSLTVSPGGTVTLTCASSTGAVTSGYYPNWFQQKPGQAPRALIYSTSNKHSWTPARFSGSLLGGKAALTLSGVQPEDEAEYYCLLYYGGAYVFGTGTKVTVL
notes: as for B1

- Kd [14]: 31.6 nM
- koff [14]: 0.00962 s⁻¹
- kon [14]: 305000 M⁻¹ s⁻¹
- Kd [15]: 38.9 nM
- koff [15]: 0.0152 s⁻¹
- kon [15]: 390000 M⁻¹ s⁻¹
B9: ABL-CD3-32 (antibody, V domains shown)
VH: EVQLVESGGGLVKPGGSLRLSCEASGFTFSSYNMNWVRQAPGKGLEWVSSISSSSSYIYYTDSVKGRFTISRDNAKNSLYLQMNSLRAEDTAVYYCARAERGSYAFDFWGQGTMVTVSS
VL: not shown
notes: as for B1

- Kd [16]: 1.43 nM
- koff [16]: 0.00269 s⁻¹
- kon [16]: 1.89e+06 M⁻¹ s⁻¹
- Kd [17]: 17.8 nM
- koff [17]: 0.00404 s⁻¹
- kon [17]: 227000 M⁻¹ s⁻¹
B10: ABL-CD3-37 (antibody, V domains shown)
VH: EVQLVESGGGLVQPGGSLRLSCAASGFSFSSYSMNWVRQAPGKGLEWVSHIRSSTYSIYYADSVMGRFTISRDNAKNSLYLQMNSLRDEDTAVYFCARAKTGGDAFDIWGQGTMVTVSS
VL: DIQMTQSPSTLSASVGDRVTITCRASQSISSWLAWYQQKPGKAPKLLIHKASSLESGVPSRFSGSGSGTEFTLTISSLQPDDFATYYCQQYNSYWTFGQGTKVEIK
notes: as for B1

Continued, binder first:

B3: ABL-CD3-22 (antibody, V domains shown)
VH: EVQLVESGGGLVQPGGSLRLSCAASGFTFSSYSMNWVRQAPGKGLEWVSYISSSSSTIYYADSVKGRFTISRDNAKNSLYLQMNSLRDEDTAVYYCARDGPVDYGMDVWGQGTTVTVSS
VL: SYELTQPPSVSVSPGQTARITCSGDALPKQYTYWCQQKPGQAPVLVIYKDSERPSGIPERFSGSSSGTTVTLTISGVQAEDEADYYCQSADSSGTYRVFGGGTKLTVL
notes: as for B1
- Kd [5]: 14.4 nM
- koff [5]: 0.00639 s⁻¹
- kon [5]: 444000 M⁻¹ s⁻¹
- Kd [6]: 49.2 nM
- Response [6]: 0.08
- koff [6]: 0.00513 s⁻¹
- kon [6]: 104000 M⁻¹ s⁻¹

B4: ABL-CD3-27 (antibody, V domains shown)
VH: QVQLVQSGAEVKKPGASLKVSCKASGYTFTSYYMHWVRQAPGQGLEWMGIINPSNGNTISAQKFQGRVTMTRDTSTSTVYMEMSSLRSEDTAVYYCVRCWGYYVMDVWGQGTTVTVSS
VL: QTVVTQEPSFSVSPGGTVTLTCGLNSGSVSTSYYPSWYQQTPGQTPRTLIYSTNTRSSGVPDRFSGSILGNKAALTITGAQADDESDYYCVLYMGSGIWVFGGGTKLTVL
notes: as for B1
- Kd [6]: 2.31 nM
- Response [6]: 0.39
- koff [6]: 0.000528 s⁻¹
- kon [6]: 228000 M⁻¹ s⁻¹
- Kd [7]: 3.65 nM
- koff [7]: 0.00156 s⁻¹
- kon [7]: 428000 M⁻¹ s⁻¹

B5: ABL-CD3-18 (antibody, V domains shown)
VH: EVQLVESGEGLVQPGGSLRLSCAASGFTFSSYAMHWVRQAPGKGLEYVSAISSNGGRTYYADSVKGRFTISRDNSKNTLYLQMGSLRAEDMAVYYCARGGSLDYWGQGTLVTVSS
VL: DIVMTQTPLSSPVTPGQPASISCRSSQSLVHSDGNTYLNWLQQRPGQPPRLLIYKISDRFSGVPDRFSGSGAGTDFTLKIGRVEAEDVGVYYCMQSTQFPITFGQGTRLEIK
notes: as for B1
- Kd [8]: < 0.001 nM
- koff [8]: < 1e-07 s⁻¹
- kon [8]: 29100 M⁻¹ s⁻¹
- Kd [9]: < 0.001 nM
- koff [9]: < 1e-07 s⁻¹
- kon [9]: 27000 M⁻¹ s⁻¹

B7: ABL-CD3-21 (antibody, V domains shown)
VH: EVQLVESGGGLVKPGGSLRLSCAASGFTFSSYSMNWVRQAPGKGLEWVSSISRSSSYIYYADSVKGRFTLSRDNAKNSLYLQMNSLRGEDTAIYYCGRDGKGAIFLDYWGQGTLVTVSS
VL: SYELTQPPSVSVSPGQTARITCSGDALPKKYAYWYQQKSGQAPVLVIYEDSKRPSGIPERFSGSSSGTMATLTISGAQVEDEADYYCYSTHSSGNHRVFGGGTKLTVL
notes: as for B1
- Kd [11]: 95.3 nM
- Response [11]: 0.27
- koff [11]: 0.036 s⁻¹
- kon [11]: 378000 M⁻¹ s⁻¹
- Kd [12]: 130 nM
- koff [12]: 0.0994 s⁻¹
- kon [12]: 766000 M⁻¹ s⁻¹
